Publication PMC4269474 (Cell reports, 2014)

Target: the molecule itself
Experiment: negative-stain EM single particle reconstruction

B1: Pyrococcus furiosus Cmr4 (natural protein)
chain: KAYLVGLYTLTPTHPGSGTELGVVDQPIQRERHTGFPVIWGQSLKGVLRSYLKLVEKVDEEKINKIFGPPTEKAHEQAGLISVGDAKILFFPVRSLKGVYAYVTSPLVLNRFKRDLELAGVKNFQTEIPELTDTAIASEEITVDNKVILEEFAILIQKDDKGILESVVKAIEQAFGNEMAEKIKGRIAIIPDDVFRDLVELSTEIVARIRINAETGTVETGGLWYEEYIPSDTLFYSLILVTPRAKDNDMALIKEVLGKINGKYLQIGGNETVGKGFVKVTLKEVTNNGGTHAK
- stoichiometry N: 4
